According to publication PMC10786891, “Massively parallel profiling of RNA-targeting CRISPR-Cas13d”:
Substitutions are numbered along the chain they refer to. Numbers in names are those of the source.

T1: EsCas13d, nuclease-dead (Eubacterium siraeum, UniProt B0MS50, R295A;H300A;R849A;H854A)
T1 sequence: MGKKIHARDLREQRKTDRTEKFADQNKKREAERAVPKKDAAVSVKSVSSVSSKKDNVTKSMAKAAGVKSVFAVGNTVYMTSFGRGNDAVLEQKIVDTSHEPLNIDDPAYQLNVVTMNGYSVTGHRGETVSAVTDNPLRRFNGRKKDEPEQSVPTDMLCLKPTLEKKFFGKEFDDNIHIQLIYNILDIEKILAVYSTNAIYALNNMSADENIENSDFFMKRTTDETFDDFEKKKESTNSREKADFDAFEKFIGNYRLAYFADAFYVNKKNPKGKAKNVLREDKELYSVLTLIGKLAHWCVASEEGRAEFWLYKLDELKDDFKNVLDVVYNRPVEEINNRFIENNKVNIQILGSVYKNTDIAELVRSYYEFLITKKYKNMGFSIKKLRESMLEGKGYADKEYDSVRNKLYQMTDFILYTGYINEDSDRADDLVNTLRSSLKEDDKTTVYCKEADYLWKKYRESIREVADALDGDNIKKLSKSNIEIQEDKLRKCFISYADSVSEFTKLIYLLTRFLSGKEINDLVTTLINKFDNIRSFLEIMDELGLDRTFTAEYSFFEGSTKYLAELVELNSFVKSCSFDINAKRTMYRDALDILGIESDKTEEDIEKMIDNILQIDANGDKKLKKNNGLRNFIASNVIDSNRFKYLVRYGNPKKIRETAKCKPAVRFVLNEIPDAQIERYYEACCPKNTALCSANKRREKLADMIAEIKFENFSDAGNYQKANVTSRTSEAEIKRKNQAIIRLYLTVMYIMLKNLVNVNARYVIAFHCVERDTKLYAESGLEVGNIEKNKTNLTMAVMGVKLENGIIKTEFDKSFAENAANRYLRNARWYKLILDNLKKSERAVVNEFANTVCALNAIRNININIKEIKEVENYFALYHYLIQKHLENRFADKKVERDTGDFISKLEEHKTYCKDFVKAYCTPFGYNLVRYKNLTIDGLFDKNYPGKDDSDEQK

B1: target 1 insC 3' of 9,insU 3' of 6 (mixed)
RNA 1: CACCCGUGCAAAAAUGCAGGGGUCUAAAACUGAGCGGAUAACCUCUCUAUGG
RNA 2: GGGAAUGGAUCCACAUCUACGAAUUCGUACCAUAGAGAGGUUACUCCUGCUCACCGAGAUCGGAAGAGCACACGU
B2: target 1 A1G,U3A (mixed)
RNA 1: B1 RNA 1
RNA 2: GGGAAUGGAUCCACAUCUACGAAUUCGUACCAUAGAGAGGUUAUCCGCACGCCGAGAUCGGAAGAGCACACGU
B3: target 1 insA 3' of 5,insU 3' of 1 (mixed)
RNA 1: B1 RNA 1
RNA 2: B1 RNA 2 with C44U, U45C, C47G, U48A, G49C, C50U, U51C, C52A, A53U
B4: target 3 insU 3' of 11,insG 3' of 2 (mixed)
RNA 1: CACCCGUGCAAAAUUGCAGGGGUCUAAAACGACCUGAAUAUUUCAGAUCAAA
RNA 2: GGGAAUGGAUCCACAUCUACGAAUUCGUUUUUGAUCUGAAAUUAUUCAGGUGCUGCAGAUCGGAAGAGCACACGU
B5: target 3 G4A,A13G (mixed)
RNA 1: B4 RNA 1
RNA 2: GGGAAUGGAUCCACAUCUACGAAUUCGUUUUUGAUCUGGAAUAUUCAAGUCUGCAGAUCGGAAGAGCACACGU
B6: target 3 G3C,A5C (mixed)
RNA 1: B4 RNA 1
RNA 2: B5 RNA 2 with G39A, A47C, A48G, G49C
B7: target 3 insA 3' of 3,insA 3' of 2 (mixed)
RNA 1: B4 RNA 1
RNA 2: B4 RNA 2 with U43A, A44U, U46C, C47A, A48G, G50A, G52A
B8: target 3 U22G (mixed)
RNA 1: B4 RNA 1
RNA 2: B5 RNA 2 with U30G, G39A, A48G
B9: target 3 C1A,U22G (mixed)
RNA 1: B4 RNA 1
RNA 2: B5 RNA 2 with U30G, G39A, A48G, C51A
B10: target 3 insA 3' of 7,insG 3' of 6 (mixed)
RNA 1: B4 RNA 1
RNA 2: B4 RNA 2 with U43A, A44U, U46A, A48G, G49A, U51G, G52U
B11: target 3 insG 3' of 7,insA 3' of 6 (mixed)
RNA 1: B4 RNA 1
RNA 2: B4 RNA 2 with U43A, A44U, U46G, G49A, U51G, G52U
B12: target 3 C6U,U7G (mixed)
RNA 1: B4 RNA 1
RNA 2: B5 RNA 2 with G39A, U45G, C46U, A48G
B13: target 3 insC 3' of 22,insC 3' of 5 (mixed)
RNA 1: B4 RNA 1
RNA 2: GGGAAUGGAUCCACAUCUACGAAUUCGUUUCUUGAUCUGAAAUAUUCACGGUCUGCAGAUCGGAAGAGCACACGU
B14: target 3 insG 3' of 5,insU 3' of 3 (mixed)
RNA 1: B4 RNA 1
RNA 2: B4 RNA 2 with U43A, A44U, U46C, C47A, A48G, G52U
B15: target 3 G3C,U8A (mixed)
RNA 1: B4 RNA 1
RNA 2: B5 RNA 2 with G39A, U44A, A48G, G49C
B16: target 3 insC 3' of 3,insU 3' of 3 (mixed)
RNA 1: B4 RNA 1
RNA 2: B4 RNA 2 with U43A, A44U, U46C, C47A, A48G, G50C, G52U
B17: target 3 insG 3' of 9,insG 3' of 7 (mixed)
RNA 1: B4 RNA 1
RNA 2: B4 RNA 2 with U43A, A44G, C47G, A48C, G49A, U51G, G52U
B18: target 3 U8A,A18G (mixed)
RNA 1: B4 RNA 1
RNA 2: B5 RNA 2 with A34G, G39A, U44A, A48G
B19: target 3 U2A,A9G (mixed)
RNA 1: B4 RNA 1
RNA 2: B5 RNA 2 with G39A, A43G, A48G, U50A
B20: target 3 insU 3' of 3 (mixed)
RNA 1: B4 RNA 1
RNA 2: GGGAAUGGAUCCACAUCUACGAAUUCGUUUUUGAUCUGAAAUAUUCAGGUUCUGCAGAUCGGAAGAGCACACGU
B21: target 3 U2G,A9U (mixed)
RNA 1: B4 RNA 1
RNA 2: B5 RNA 2 with G39A, A43U, A48G, U50G
B22: target 3 insA 3' of 10,insA 3' of 6 (mixed)
RNA 1: B4 RNA 1
RNA 2: B4 RNA 2 with U43A, G49A, U51G, G52U
B23: target 3 A5G,U22C (mixed)
RNA 1: B4 RNA 1
RNA 2: B5 RNA 2 with U30C, G39A, A47G, A48G
B24: target 3 insG 3' of 9,insA 3' of 6 (mixed)
RNA 1: B4 RNA 1
RNA 2: B4 RNA 2 with U43A, A44G, G49A, U51G, G52U
B25: target 3 A13G (mixed)
RNA 1: B4 RNA 1
RNA 2: B5 RNA 2 with A48G
B26: target 3 insU 3' of 3,insU 3' of 3 (mixed)
RNA 1: B4 RNA 1
RNA 2: B4 RNA 2 with U43A, A44U, U46C, C47A, A48G, G50U, G52U
B27: target 3 insG 3' of 7,insU 3' of 5 (mixed)
RNA 1: B4 RNA 1
RNA 2: B4 RNA 2 with U43A, A44U, U46G, G49U, U51G, G52U
B28: target 3 C6U,A9G (mixed)
RNA 1: B4 RNA 1
RNA 2: B5 RNA 2 with G39A, A43G, C46U, A48G
B29: target 3 U2G (mixed)
RNA 1: B4 RNA 1
RNA 2: B5 RNA 2 with G39A, A48G, U50G

Target: T1, EsCas13d, nuclease-dead
Assay: crRNA (strand 1, pre-loaded); Mg2+; 40 mM Tris-HCl pH 7.5, 150 mM NaCl, 6 mM MgCl2, 1 mM DTT, 0.1% Tween-20, 0.2 mg/ml BSA; 25 C; 10 min per concentration, then washed
Details: tags: His6-TwinStrep-SUMO cleaved; N-terminal SNAP kept (SNAP-Surface 488); label: 3' end held by stalled T7 RNA polymerase

| Binder | Kd |
| --- | --- |
| B1 | 16.6 ± 0.9 nM |
| B2 | 6.8 ± 0.6 nM |
| B3 | 9.5 ± 1 nM |
| B4 | 42.5 ± 6 nM |
| B5 | 112 ± 35 nM |
| B6 | 96.5 ± 15.5 nM |
| B7 | 26.5 ± 6 nM |
| B8 | 61 ± 13 nM |
| B9 | ~87 nM |
| B10 | 21.1 ± 1.4 nM |
| B11 | 29.3 ± 3.75 nM |
| B12 | 39 ± 6 nM |
| B13 | 32 ± 4.5 nM |
| B14 | 30 ± 4.5 nM |
| B15 | 63.5 ± 7.5 nM |
| B16 | 17.9 ± 2.1 nM |
| B17 | 63 ± 7 nM |
| B18 | 63 ± 9.5 nM |
| B19 | 47 ± 6 nM |
| B20 | 29.2 ± 3.4 nM |
| B21 | 123 ± 29 nM |
| B22 | 71 ± 8.5 nM |
| B23 | 23.4 ± 3.5 nM |
| B24 | 90.5 ± 16 nM |
| B25 | 69 ± 20 nM |
| B26 | 81 ± 20 nM |
| B27 | 19.9 ± 2.2 nM |
| B28 | 22.1 ± 1.9 nM |
| B29 | 26.5 ± 2.7 nM |
